Test results: publication PMC9482650, “Quantitative fragmentomics allow affinity mapping of interactomes” (Nature Communications, 2022)

T1: RADIL, Q96JH8
T1 sequence (Q96JH8 971-1071, limits assumed, looked up): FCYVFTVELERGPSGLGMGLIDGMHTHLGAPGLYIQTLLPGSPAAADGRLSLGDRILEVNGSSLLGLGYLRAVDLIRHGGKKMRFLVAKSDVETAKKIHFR

T2: DLG3_3, Q92796
T2 sequence (Q92796 374-475, limits assumed, looked up): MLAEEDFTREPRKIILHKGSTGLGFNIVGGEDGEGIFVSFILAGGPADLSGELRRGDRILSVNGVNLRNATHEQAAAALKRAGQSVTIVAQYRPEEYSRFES

T3: DVL3, Q92997
T3 sequence (Q92997 244-331, limits assumed, looked up): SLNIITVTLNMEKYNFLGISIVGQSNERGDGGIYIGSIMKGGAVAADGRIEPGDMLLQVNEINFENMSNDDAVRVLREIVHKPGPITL

T4: LNX2_3, Q8N448
T4 sequence (Q8N448 463-564, limits assumed, looked up): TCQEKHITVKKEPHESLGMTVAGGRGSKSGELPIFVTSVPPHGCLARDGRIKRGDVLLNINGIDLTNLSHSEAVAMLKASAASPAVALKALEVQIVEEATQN

T5: GRIP1_5, Q9Y3R0
T5 sequence (Q9Y3R0 568-668, limits assumed, looked up): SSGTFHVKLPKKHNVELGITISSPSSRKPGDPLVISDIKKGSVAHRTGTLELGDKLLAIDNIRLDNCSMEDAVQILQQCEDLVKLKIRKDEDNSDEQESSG

T6: MPP2, Q14168
T6 sequence (Q14168 180-250, limits assumed, looked up): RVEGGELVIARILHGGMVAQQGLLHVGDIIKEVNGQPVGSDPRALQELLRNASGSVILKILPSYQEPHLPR

T7: LNX2_2, Q8N448
T7 sequence (Q8N448 334-432, limits assumed, looked up): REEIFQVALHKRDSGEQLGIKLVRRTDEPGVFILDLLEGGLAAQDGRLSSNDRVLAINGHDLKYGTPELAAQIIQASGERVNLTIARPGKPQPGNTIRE

T8: NHERF3_1, Q5T2W1
T8 sequence (Q5T2W1 4-100, limits assumed, looked up): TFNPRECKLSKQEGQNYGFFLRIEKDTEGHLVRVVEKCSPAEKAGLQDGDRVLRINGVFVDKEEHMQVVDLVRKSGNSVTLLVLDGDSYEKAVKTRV

T9: TIAM2, Q8IVF5
T9 sequence (Q8IVF5 885-986, limits assumed, looked up): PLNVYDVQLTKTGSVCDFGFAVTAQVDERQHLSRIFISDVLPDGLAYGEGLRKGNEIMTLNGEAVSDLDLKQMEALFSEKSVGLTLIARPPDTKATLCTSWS

T10: LIN7B, Q9HAP6
T10 sequence (Q9HAP6 88-185, limits assumed, looked up): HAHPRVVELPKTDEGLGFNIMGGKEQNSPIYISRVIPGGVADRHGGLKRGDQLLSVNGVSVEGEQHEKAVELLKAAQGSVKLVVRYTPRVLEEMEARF

T11: ARHGEF11, O15085
T11 sequence (O15085 42-136, limits assumed, looked up): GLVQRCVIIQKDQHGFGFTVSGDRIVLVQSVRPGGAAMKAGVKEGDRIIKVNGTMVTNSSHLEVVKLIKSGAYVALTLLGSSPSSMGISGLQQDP

T12: GRIP1_4, Q9Y3R0
T12 sequence (Q9Y3R0 467-571, limits assumed, looked up): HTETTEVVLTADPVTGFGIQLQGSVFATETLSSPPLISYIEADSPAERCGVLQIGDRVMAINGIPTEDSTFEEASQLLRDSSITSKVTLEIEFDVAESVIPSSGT

B1: GRK6, P43250 (peptide)
chain: DSEEELPTRL
B2: TRPM1, Q7Z4N2 (peptide)
chain: KEKASTETEC
B3: POLR1D, P0DPB6 (peptide)
chain: QKASRNESTF

What follows are binders tested against IL16_3, Q14005 (assay: holdup assay). Conditions: plain residues with an end cap or a label only (N-terminal biotin on a linker: ado-ado).
Set-up: key: below the threshold = too weak to quantify, mostly under pKd 3.1 to 4

Chain of IL16_3, Q14005 (Q14005 1107-1207): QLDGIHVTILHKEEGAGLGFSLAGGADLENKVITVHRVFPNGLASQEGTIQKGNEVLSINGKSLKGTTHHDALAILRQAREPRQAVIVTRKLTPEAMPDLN

| Binder | pKd |
| --- | --- |
| B1 | below the threshold |
| B2 | below the threshold |
| B3 | below the threshold |

What follows are binders tested against T1, RADIL, Q96JH8 (assay: holdup assay). Conditions: plain residues with an end cap or a label only (N-terminal biotin on a linker: ado-ado).
Set-up: key: below the threshold = too weak to quantify, mostly under pKd 3.1 to 4

| Binder | pKd |
| --- | --- |
| B1 | below the threshold |
| B2 | below the threshold |
| B3 | below the threshold |

Each binder was assayed against T2, DLG3_3, Q92796 (assay: holdup assay). Conditions: plain residues with an end cap or a label only (N-terminal biotin on a linker: ado-ado).
Set-up: key: below the threshold = too weak to quantify, mostly under pKd 3.1 to 4

| Binder | pKd |
| --- | --- |
| B1 | below the threshold |
| B2 | below the threshold |
| B3 | 3.6 |

What follows are binders tested against LAP2, Q96RT1 (assay: holdup assay). Conditions: plain residues with an end cap or a label only (N-terminal biotin on a linker: ado-ado).
Set-up: key: below the threshold = too weak to quantify, mostly under pKd 3.1 to 4

Chain of LAP2, Q96RT1 (Q96RT1 other isoform, or with tags, fused parts or gaps): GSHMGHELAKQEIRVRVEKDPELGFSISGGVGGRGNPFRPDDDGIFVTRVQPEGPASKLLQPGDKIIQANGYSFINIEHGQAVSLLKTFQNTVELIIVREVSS

| Binder | pKd |
| --- | --- |
| B1 | below the threshold |
| B2 | 3.67 |
| B3 | below the threshold |

What follows are binders tested against T3, DVL3, Q92997 (assay: holdup assay). Conditions: plain residues with an end cap or a label only (N-terminal biotin on a linker: ado-ado).
Set-up: key: below the threshold = too weak to quantify, mostly under pKd 3.1 to 4

| Binder | pKd |
| --- | --- |
| B1 | below the threshold |
| B2 | below the threshold |
| B3 | below the threshold |

The binders below were run against MAST2, Q6P0Q8 (assay: holdup assay). Conditions: plain residues with an end cap or a label only (N-terminal biotin on a linker: ado-ado).
Set-up: key: below the threshold = too weak to quantify, mostly under pKd 3.1 to 4

Chain of MAST2, Q6P0Q8 (Q6P0Q8 1099-1202): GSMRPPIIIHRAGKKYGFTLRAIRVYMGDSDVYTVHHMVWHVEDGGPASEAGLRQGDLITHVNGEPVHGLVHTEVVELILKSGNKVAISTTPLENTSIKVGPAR

| Binder | pKd |
| --- | --- |
| B1 | 4.83 |
| B2 | 4.78 |
| B3 | 4.95 |

Each binder was assayed against T4, LNX2_3, Q8N448 (assay: holdup assay). Conditions: plain residues with an end cap or a label only (N-terminal biotin on a linker: ado-ado).
Set-up: key: below the threshold = too weak to quantify, mostly under pKd 3.1 to 4

| Binder | pKd |
| --- | --- |
| B1 | below the threshold |
| B2 | below the threshold |
| B3 | below the threshold |

What follows are binders tested against T5, GRIP1_5, Q9Y3R0 (assay: holdup assay). Conditions: plain residues with an end cap or a label only (N-terminal biotin on a linker: ado-ado).
Set-up: key: below the threshold = too weak to quantify, mostly under pKd 3.1 to 4

| Binder | pKd |
| --- | --- |
| B1 | below the threshold |
| B2 | below the threshold |
| B3 | below the threshold |

What follows are binders tested against GIPC2, Q8TF65 (assay: holdup assay). Conditions: plain residues with an end cap or a label only (N-terminal biotin on a linker: ado-ado).
Set-up: key: below the threshold = too weak to quantify, mostly under pKd 3.1 to 4

Chain of GIPC2, Q8TF65 (Q8TF65 112-203): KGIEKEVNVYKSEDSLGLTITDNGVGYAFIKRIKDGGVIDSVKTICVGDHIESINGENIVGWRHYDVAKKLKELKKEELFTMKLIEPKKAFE

| Binder | pKd |
| --- | --- |
| B1 | 3.65 |
| B2 | 4.1 |
| B3 | below the threshold |

The binders below were run against T6, MPP2, Q14168 (assay: holdup assay). Conditions: plain residues with an end cap or a label only (N-terminal biotin on a linker: ado-ado).
Set-up: key: below the threshold = too weak to quantify, mostly under pKd 3.1 to 4

| Binder | pKd |
| --- | --- |
| B1 | below the threshold |
| B2 | below the threshold |
| B3 | below the threshold |

These binders were tested against T7, LNX2_2, Q8N448 (assay: holdup assay). Conditions: plain residues with an end cap or a label only (N-terminal biotin on a linker: ado-ado).
Set-up: key: below the threshold = too weak to quantify, mostly under pKd 3.1 to 4

| Binder | pKd |
| --- | --- |
| B1 | below the threshold |
| B2 | below the threshold |
| B3 | below the threshold |

These binders were tested against Inadl_2, Q8NI35 (assay: holdup assay). Conditions: plain residues with an end cap or a label only (N-terminal biotin on a linker: ado-ado).
Set-up: key: below the threshold = too weak to quantify, mostly under pKd 3.1 to 4

Chain of Inadl_2, Q8NI35 (Q8NI35 238-335): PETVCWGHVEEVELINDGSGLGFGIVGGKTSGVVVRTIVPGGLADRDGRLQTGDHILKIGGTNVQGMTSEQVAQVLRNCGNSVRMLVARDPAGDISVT

| Binder | pKd |
| --- | --- |
| B1 | below the threshold |
| B2 | below the threshold |
| B3 | below the threshold |

These binders were tested against PARD3_3, Q8TEW0 (assay: holdup assay). Conditions: plain residues with an end cap or a label only (N-terminal biotin on a linker: ado-ado).
Set-up: key: below the threshold = too weak to quantify, mostly under pKd 3.1 to 4

Chain of PARD3_3, Q8TEW0 (Q8TEW0 582-685): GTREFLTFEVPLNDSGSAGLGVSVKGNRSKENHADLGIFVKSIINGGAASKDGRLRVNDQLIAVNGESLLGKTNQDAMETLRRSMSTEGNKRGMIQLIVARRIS

| Binder | pKd |
| --- | --- |
| B1 | 4.09 |
| B2 | below the threshold |
| B3 | below the threshold |

What follows are binders tested against MAGI2_2, Q86UL8 (assay: holdup assay). Conditions: plain residues with an end cap or a label only (N-terminal biotin on a linker: ado-ado).
Set-up: key: below the threshold = too weak to quantify, mostly under pKd 3.1 to 4

Chain of MAGI2_2, Q86UL8 (Q86UL8 410-522): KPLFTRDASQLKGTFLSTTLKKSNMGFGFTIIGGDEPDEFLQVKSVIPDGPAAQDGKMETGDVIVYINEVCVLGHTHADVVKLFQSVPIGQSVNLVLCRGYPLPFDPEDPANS

| Binder | pKd |
| --- | --- |
| B1 | 3.54 |
| B2 | below the threshold |
| B3 | below the threshold |

The binders below were run against T8, NHERF3_1, Q5T2W1 (assay: holdup assay). Conditions: plain residues with an end cap or a label only (N-terminal biotin on a linker: ado-ado).
Set-up: key: below the threshold = too weak to quantify, mostly under pKd 3.1 to 4

| Binder | pKd |
| --- | --- |
| B1 | 4.06 |
| B2 | 3.64 |
| B3 | below the threshold |

What follows are binders tested against GRIP2_5, Q9C0E4 (assay: holdup assay). Conditions: plain residues with an end cap or a label only (N-terminal biotin on a linker: ado-ado).
Set-up: key: below the threshold = too weak to quantify, mostly under pKd 3.1 to 4

Chain of GRIP2_5, Q9C0E4 (Q9C0E4 544-642): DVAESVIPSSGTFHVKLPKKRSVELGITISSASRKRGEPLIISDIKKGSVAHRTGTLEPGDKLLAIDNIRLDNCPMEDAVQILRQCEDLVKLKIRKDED

| Binder | pKd |
| --- | --- |
| B1 | below the threshold |
| B2 | below the threshold |
| B3 | below the threshold |

These binders were tested against T9, TIAM2, Q8IVF5 (assay: holdup assay). Conditions: plain residues with an end cap or a label only (N-terminal biotin on a linker: ado-ado).
Set-up: key: below the threshold = too weak to quantify, mostly under pKd 3.1 to 4

| Binder | pKd |
| --- | --- |
| B1 | below the threshold |
| B2 | below the threshold |
| B3 | 3.92 |

Each binder was assayed against NOS1, P29475 (assay: holdup assay). Conditions: plain residues with an end cap or a label only (N-terminal biotin on a linker: ado-ado).
Set-up: key: below the threshold = too weak to quantify, mostly under pKd 3.1 to 4

Chain of NOS1, P29475 (P29475 9-101): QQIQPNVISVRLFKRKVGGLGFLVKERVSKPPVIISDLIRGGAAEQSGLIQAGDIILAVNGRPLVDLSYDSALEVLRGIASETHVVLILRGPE

| Binder | pKd |
| --- | --- |
| B1 | 3.61 |
| B2 | below the threshold |
| B3 | below the threshold |

These binders were tested against T10, LIN7B, Q9HAP6 (assay: holdup assay). Conditions: plain residues with an end cap or a label only (N-terminal biotin on a linker: ado-ado).
Set-up: key: below the threshold = too weak to quantify, mostly under pKd 3.1 to 4

| Binder | pKd |
| --- | --- |
| B1 | below the threshold |
| B2 | 3.77 |
| B3 | 3.96 |

What follows are binders tested against TJP2_1, Q9UDY2 (assay: holdup assay). Conditions: plain residues with an end cap or a label only (N-terminal biotin on a linker: ado-ado).
Set-up: key: below the threshold = too weak to quantify, mostly under pKd 3.1 to 4

Chain of TJP2_1, Q9UDY2 (Q9UDY2 24-128): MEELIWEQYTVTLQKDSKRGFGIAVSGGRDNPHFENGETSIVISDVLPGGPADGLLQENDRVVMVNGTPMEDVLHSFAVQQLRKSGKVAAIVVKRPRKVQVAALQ

| Binder | pKd |
| --- | --- |
| B1 | below the threshold |
| B2 | below the threshold |
| B3 | below the threshold |

What follows are binders tested against T11, ARHGEF11, O15085 (assay: holdup assay). Conditions: plain residues with an end cap or a label only (N-terminal biotin on a linker: ado-ado).
Set-up: key: below the threshold = too weak to quantify, mostly under pKd 3.1 to 4

| Binder | pKd |
| --- | --- |
| B1 | 3.78 |
| B2 | below the threshold |
| B3 | below the threshold |

The binders below were run against FRMPD4, Q14CM0 (assay: holdup assay). Conditions: plain residues with an end cap or a label only (N-terminal biotin on a linker: ado-ado).
Set-up: key: below the threshold = too weak to quantify, mostly under pKd 3.1 to 4

Chain of FRMPD4, Q14CM0 (Q14CM0 67-160): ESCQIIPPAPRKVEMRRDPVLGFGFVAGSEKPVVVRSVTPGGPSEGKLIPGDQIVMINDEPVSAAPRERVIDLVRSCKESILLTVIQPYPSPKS

| Binder | pKd |
| --- | --- |
| B1 | 4.39 |
| B2 | below the threshold |
| B3 | below the threshold |

The binders below were run against DLG1_2, Q12959 (assay: holdup assay). Conditions: plain residues with an end cap or a label only (N-terminal biotin on a linker: ado-ado).
Set-up: key: below the threshold = too weak to quantify, mostly under pKd 3.1 to 4

Chain of DLG1_2, Q12959 (Q12959 314-412): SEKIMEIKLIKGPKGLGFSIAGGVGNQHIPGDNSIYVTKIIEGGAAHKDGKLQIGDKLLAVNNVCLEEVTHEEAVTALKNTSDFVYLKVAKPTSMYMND

| Binder | pKd |
| --- | --- |
| B1 | below the threshold |
| B2 | 4.23 |
| B3 | 3.64 |

The binders below were run against SNX27, Q96L92 (assay: holdup assay). Conditions: plain residues with an end cap or a label only (N-terminal biotin on a linker: ado-ado).
Set-up: key: below the threshold = too weak to quantify, mostly under pKd 3.1 to 4

| Binder | pKd |
| --- | --- |
| B1 | 3.85 |
| B2 | 4.53 |
| B3 | 4.29 |

Each binder was assayed against IL16_4, Q14005 (assay: holdup assay). Conditions: plain residues with an end cap or a label only (N-terminal biotin on a linker: ado-ado).
Set-up: key: below the threshold = too weak to quantify, mostly under pKd 3.1 to 4

Chain of IL16_4, Q14005 (Q14005 1229-1329): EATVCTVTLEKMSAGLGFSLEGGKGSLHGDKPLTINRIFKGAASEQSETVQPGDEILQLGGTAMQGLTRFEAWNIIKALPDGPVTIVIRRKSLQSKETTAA

| Binder | pKd |
| --- | --- |
| B1 | below the threshold |
| B2 | below the threshold |
| B3 | below the threshold |

These binders were tested against T12, GRIP1_4, Q9Y3R0 (assay: holdup assay). Conditions: plain residues with an end cap or a label only (N-terminal biotin on a linker: ado-ado).
Set-up: key: below the threshold = too weak to quantify, mostly under pKd 3.1 to 4

| Binder | pKd |
| --- | --- |
| B1 | below the threshold |
| B2 | below the threshold |
| B3 | below the threshold |
